Key:
BSA = BSA (Bos taurus, UniProt P02769); experiment: ELISA antigen binding of BsAbs, control protein
Protocol: (§1) The anti-PEG binding specificity of BsAbs was measured by adding graded concentrations of PEG2×TAG72, PEG2×DNS, hCC49 scFv, h6.3Fab×EGFR or h6.3Fab×CD19 in 50 μL 2% skim milk to the mucin, BSA-PEG5000, NH2-PEG3k-NH2 or BSA coated plates at RT for 1 h. The plates were washed with PBS-T (PBS containing 0.05% Tween-20) three times. Rabbit anti-6×His (2 μg/mL) supplemented with HRP-conjugated goat anti-rabbit (2 μg/mL) or HRP-conjugated goat Ig anti human IgG Fab (2 μg/mL) (Jackson ImmunoResearch Laboratories, West Grove, Pa.) in 50 μL dilution buffer were added for 1 h at room temperature. The plates were washed with PBS-T (PBS containing 0.05% Tween-20) three times and with PBS two times. Bound peroxidase activity was measured by adding 150 μL/well ABTS substrate solution (BioLegend, San Diego, Calif.) for 30 min at room temperature. The absorbance (405 nm) of wells was measured in a microplate reader (Molecular Device, Menlo Park, Calif.).
Binding of the BsAbs was detected by ELISA. Microtiter plates were first coated with antigens and then PEG2×TAG72, PEG2×DNS BsAbs or hCC49 (anti-TAG72) single chain antibody was added. After the plates were extensively washed to remove unbound antibodies, the remaining bound antibodies in each well were detected with HRP-conjugated secondary antibody. […] In sum, PEG2×TAG72 anti-PEG (hE11) BsAb of example 1.2 can bind both PEG and tumor antigens. […]

[1] = ELISA PEG binding of h6.3 BsAbs; conditions: FIG. 14A
Protocol: as §1, with “The anti-PEG binding specificity of BsAbs was measured by adding graded concentrations of PEG2×TAG72, PEG2×DNS, hCC49 scFv, h6.3Fab×EGFR or h6.3Fab×CD19 in 50 μL 2% skim milk to the mucin, BSA-PEG5000, NH2-PEG3k-NH2 or BSA coated plates at RT for 1 h.” left out
The PEG-binding kinetics of h6-3Fab×EGFR and h6.3Fab×CD19 BsAbs were verified by Microscale Thermophoresis (MST) (FIGS. 14D and 14E).

A431 cells (EGFR+) = experiment: Flow cytometry: BsAb-directed PEG-liposome Texas Red / PEG-Qdot655 on cells; assay type: cell-based, human; conditions: PEG-liposome Texas Red and PEG-Qdot655, 10 μg/mL BsAb
Protocol: PEG2×TAG72 or control PEG2×DNS BsAbs (10 μg/mL) were incubated with A-375 (TAG72−), MCF-7 (TAG72+), Jurkat (TAG72+) or OVCAR-3 (TAG72+) cells at 4° C. for 30 min followed by FITC-labeled goat anti-human immunoglobulin second antibody (2 μg/mL) (Jackson ImmunoResearch Laboratories, West Grove, Pa.) or FITC-labeled 4arm-PEG (2 μg/mL). Tumor-specific targeting of PEGylated compounds was also examined by staining A431 (EGFR^high), and Raji (CD19^high) cell lines with 10 μg/mL of h6.3Fab×EGFR or h6.3Fab×CD19 BsAbs in PBS containing 0.05% BSA (staining buffer) at 4° C. for 30 min. The cells were washed with cold PBS for 3 times. PEG-Qdot655 (8 nM) (Invitrogen, Grand Island, N.Y.) or PEG-liposomal Texas-Red (100 nm size, 50 μM, lipid conc.) (FormuMax Scientific, Palo Alto, Calif.) in staining buffer was added to cells for 30 min at 4° C. Raji cells (CD19+) or SKBR3 cells (HER2+) were incubated with 10 μg/ml h15-2b-knob/BU12-hole, h15-2b-knob/anti-Her2-hole, h6-3-knob/BU12-hole or h6-3-knob/anti-Her2-hole BsAbs, washed and incubated with 0.25 μg/ml FITC-labeled goat anti-human IgG or 10 nM methoxy-PEG Qdot 655 at 4° C. for 30 min. After washing with cold PBS, the surface fluorescence of 10^4 viable cells was measured by FACScaliber flow cytometer (Becton Dickinson, Mountain View, Calif., USA) then analyzed with Flowjo (Tree Star Inc., San Carlos, Calif., USA). […]

A431 (EGFR+) tumor cells = experiment: Confocal live cell imaging of PEG-Qdot655 internalization; assay type: cell-based, human; conditions: 10 μg/mL BsAb, 16 nM PEG-Qdot655
Protocol: The coverslips (30 mm) in POC chambers were coated with 10 μg/mL poly-L-lysine in PBS for 30 min at room temperature. The coverslips were washed twice with PBS and then 5×10^4 cells/chamber of A431 (EGFR+) tumor cells were seeded on the coverslips. A431 cells were incubated with 10 μg/mL of h6.3Fab×EGFR or h6.3Fab×CD19 BsAbs at 37° C. for 30 min containing 1 μg/mL of Hoechst 33342 and 100 nM of LysoTracker® Red DND-99 (Invitrogen Life Technologies Corporation, NY, USA). The cells were washed with culture medium for 2 times. Cell imaging was recorded with an Axiovert 200M Confocal Microscope (Carl Ziess Inc., Thornwood, N.Y.) after adding 16 nM of PEG-Qdot655 solution (Invitrogen Life Technologies Corporation, NY, USA).
To verify whether BsAb-targeted substance could be internalized by antigen-positive cancer cells, live cell imaging was performed by staining cells with lysosome tracker and BsAbs, followed by the addition and incubation of PEG-Qdot655.

A431 (EGFR+) cells = experiment: Cytotoxicity assay of Doxisome with h6.3 BsAbs (3H-thymidine); assay type: cell-based, human; conditions: compared with Doxisome alone
Protocol: A431 (EGFR^high) and Raji (CD19^high) cells (5000 cells/well) were seeded in 96-well plates overnight. Fifteen microgram per mL of h6.3Fab×EGFR or h6.3Fab×CD19 BsAbs were added to the cells for 30 min at 37° C. and followed by graded concentrations of free doxorubicin or PEGylated liposomal doxorubicin (Doxisome®, Taiwan Liposome Company Ltd., Taipei, Taiwan) was added to the cells in triplicate at 37° C. for 4 h. The cells were subsequently washed once and incubated for an additional 48 h in fresh culture medium and then pulsed for 16 h with ^3H-thymidine (1 μCi/well). Results are expressed as percent inhibition of ^3H-thymidine incorporation into cellular DNA in comparison to untreated cells.
Next, the ability of whether h6.3Fab×CD19 and h6.3Fab×EGFR BsAbs could increase the cytotoxicity of the drug-loaded nanoparticles (NPs) to antigen-positive cancer cells was investigated. Raji (CD19+) and A431 (EGFR+) cells were incubated with h6.3Fab×CD19 and h6.3Fab×EGFR, followed by the addition of graded concentrations of Doxisome (i.e., PEGylated liposomal doxorubicin).

MDA-MB-468 cells (EGFR+) = experiment: as above; assay type: cell-based, human; conditions: compared with Doxisome alone
[2] = tested on: Ramos (CD19+) and A431 (EGFR+) tumor; experiment: In vivo optical imaging of PEG-NIR797 probes; parameters: species or system BALB/c nude mice; conditions: i.v. BsAb and PEG-NIR797; 45 min, 24 and 48 hours
Protocol: The mice were then imaged at 45 min, 24 and 48 hours after injection using an IVIS spectrum optical imaging system.

Chain of BSA (P02769 25-607): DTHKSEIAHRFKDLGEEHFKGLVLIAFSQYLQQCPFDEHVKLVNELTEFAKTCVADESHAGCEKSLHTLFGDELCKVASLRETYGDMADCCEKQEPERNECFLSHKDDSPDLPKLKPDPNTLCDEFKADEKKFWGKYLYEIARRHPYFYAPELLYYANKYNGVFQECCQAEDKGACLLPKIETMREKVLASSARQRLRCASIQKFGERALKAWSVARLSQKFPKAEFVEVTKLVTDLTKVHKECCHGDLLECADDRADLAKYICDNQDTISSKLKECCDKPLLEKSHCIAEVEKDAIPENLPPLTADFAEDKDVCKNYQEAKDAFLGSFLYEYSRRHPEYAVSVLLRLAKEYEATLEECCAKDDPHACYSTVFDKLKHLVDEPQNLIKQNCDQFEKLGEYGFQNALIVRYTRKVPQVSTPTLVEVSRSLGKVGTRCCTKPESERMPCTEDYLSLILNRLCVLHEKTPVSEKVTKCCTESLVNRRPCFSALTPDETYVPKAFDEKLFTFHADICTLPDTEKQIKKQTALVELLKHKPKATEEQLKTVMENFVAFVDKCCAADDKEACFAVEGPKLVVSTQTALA

- binding to BSA (BSA): not to the control BSA protein
- binding to NH2-PEG10,000-NH2 [1]: bound to the NH2-PEG10,000-NH2
B1: h6.3Fab×EGFR: monovalent humanized anti-PEG h6.3 Fab fused to 11F8 anti-EGFR dsFv; SEQ ID NO 9, 10, 4, 7, 6 (protein)
chain 1: DIVMTQSPDSLAVSLGERATINCKSSQSVLYSSNQMNYLAWYQQKPGQPPKLLIYWASTRESGVPDRFSGSGSGTDFTLTISSLQAEDVAVYYCLQYLSSWTFGGGTKLEIKTYSLSSTLTLSKADYEKHKLYACEVTHQGLSSPVTKSFNRGEC
chain 2: QVQLVQSGSELKKPGASVKVSCKASGYTFKNYGMNWVRQAPGQGLEWMGWINTYTGQPIYANDFKGRFVFSLDTSVSTAYLQISSLKAEDTAVYYCARDWGPYWGQGTLVTVSSASTKGPSVFPLAPSSKSTSGGTAALGCLVKDYFPEPVTVSWNSGALTSGVHTFPAVLQSSGLYSLSSVVTVPSSSLGTQTYICNVNHKPSNTKVDKRVEPKSCDK
chain 3: VDLVTVSSASTGGGSGQLGGGGS
chain 4: QVQLQESGPGLVKPSQTLSLTCTVSGGSISSGDYYWSWIRQPPGKCLEWIGYIYYSGSTDYNPSLKSRVTMSVDTSKNQFSLKVNSVTAADTAVYYCARVSIFGVGTFDYWGQGTLVTVSSGGGGSGGGGSGGGGSEIVMTQSPATLSLSPGERATLSCRASQSVSSYLAWYQQKPGQAPRLLIYDASNRATGIPARFSGSGSGTDFTLTISSLEPEDFAVYYCHQYGSTPLTFGCGTKAEIK
chain 5: TRHHHHHH
modifications: Humanized 6.3 VL-Ck; Humanized 6.3 VH-CH1; Peptide Linker; 11F8 anti-EGFR dsFv; 6xHis Tag
- directing PEGylated substance to A431 cells (A431 cells (EGFR+)): capable of directing the PEGylated substance
- uptake of PEG-Qdot655 into A431 cells (endocytic vesicles) (A431 (EGFR+) tumor cells): displayed red fluorescence within endocytic vesicles
- effect on cytotoxicity of Doxisome to A431 cells (A431 (EGFR+) cells): enhanced cytotoxicity of Doxisome
- effect on cytotoxicity of Doxisome to MDA-MB-468 cells (MDA-MB-468 cells (EGFR+)): enhanced cytotoxicity of Doxisome
- PEG-NIR797 signal in A431 tumors [2]: Enhanced signals of PEG-NIR797
